From patent US20150344570A1 (published 2015)

T1: FcgRIIa H (human, UniProt P12318 34-217)
T1 construct: extracellular domain; also called FcγRIIa H; FcγRIIa type H
T1 sequence (looked up): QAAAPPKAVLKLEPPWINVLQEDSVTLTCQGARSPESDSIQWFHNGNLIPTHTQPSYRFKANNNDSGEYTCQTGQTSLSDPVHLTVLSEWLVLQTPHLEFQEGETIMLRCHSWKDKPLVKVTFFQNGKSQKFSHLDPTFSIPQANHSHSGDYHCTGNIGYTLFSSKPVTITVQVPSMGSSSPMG

T2: FcgRIIa R (human, UniProt P12318 34-217)
T2 construct: extracellular domain; also called FcγRIIa R; FcγRIIa type R
T2 sequence (looked up): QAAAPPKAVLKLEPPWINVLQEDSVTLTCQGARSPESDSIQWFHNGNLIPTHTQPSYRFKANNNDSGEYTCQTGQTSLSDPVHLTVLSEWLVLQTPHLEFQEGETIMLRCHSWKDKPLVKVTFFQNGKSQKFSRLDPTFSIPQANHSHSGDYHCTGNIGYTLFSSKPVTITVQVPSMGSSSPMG

T3: FcgRIIb (human, UniProt P31994 43-217)
T3 construct: extracellular domain; also called FcγRIIb; CD32B
T3 sequence (looked up): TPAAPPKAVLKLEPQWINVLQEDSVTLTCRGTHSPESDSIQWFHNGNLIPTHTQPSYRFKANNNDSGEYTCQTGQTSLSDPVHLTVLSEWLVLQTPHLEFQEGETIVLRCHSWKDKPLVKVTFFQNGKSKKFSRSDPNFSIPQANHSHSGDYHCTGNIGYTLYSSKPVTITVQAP

T4: FcgRIIb (human, UniProt P31994 43-217)
T4 construct: extracellular domain; Soluble extracellular domain with C-terminal His tag, expressed in FreeStyle293 cells; also called FcγRIIb; 2b; not shown: His tag at the C terminus
T4 sequence (looked up): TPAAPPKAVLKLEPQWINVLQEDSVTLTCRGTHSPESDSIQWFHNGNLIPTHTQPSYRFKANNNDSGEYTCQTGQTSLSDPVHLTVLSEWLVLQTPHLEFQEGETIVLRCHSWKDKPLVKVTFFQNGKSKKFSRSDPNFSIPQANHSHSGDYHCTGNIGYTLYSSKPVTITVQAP

T5: FcgRIIaR (human, UniProt P12318 34-217)
T5 construct: extracellular domain; Soluble extracellular domain with C-terminal His tag, expressed in FreeStyle293 cells; also called FcγRIIa R; FcgRIIa type R; not shown: His tag at the C terminus
T5 sequence (looked up): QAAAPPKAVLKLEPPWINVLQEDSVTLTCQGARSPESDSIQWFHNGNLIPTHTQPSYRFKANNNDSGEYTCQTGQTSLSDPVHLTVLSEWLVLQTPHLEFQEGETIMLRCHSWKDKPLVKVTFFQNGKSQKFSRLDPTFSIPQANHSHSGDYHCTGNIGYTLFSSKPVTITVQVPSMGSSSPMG


Key:
[1] = target: T6, FcgRIa (human, UniProt P12314 16-292); assay: SPR (Biacore); KD of GpH7-Kn033/GpH7-Hl033/GpL16-k0 for this FcγR divided by KD of this antibody
T6 construct: extracellular domain; also called FcγRIa; FcγRI
T6 sequence (P12314 16-292): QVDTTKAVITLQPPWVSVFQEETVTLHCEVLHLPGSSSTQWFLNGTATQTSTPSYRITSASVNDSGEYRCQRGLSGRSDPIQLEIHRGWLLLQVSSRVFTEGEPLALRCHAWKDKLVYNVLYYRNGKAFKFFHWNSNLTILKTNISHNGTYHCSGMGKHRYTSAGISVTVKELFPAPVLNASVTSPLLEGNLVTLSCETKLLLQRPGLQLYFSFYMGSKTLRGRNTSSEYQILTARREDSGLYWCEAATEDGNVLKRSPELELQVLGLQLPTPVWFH
Description: (§1) These antibodies were assessed for the binding activity to each FcγR according to the method described in Reference Example 2.
(§2) Analysis of interaction between objective antibody and the FcγR was carried out using Biacore T100 (GE Healthcare). HBS-EP+ (GE Healthcare) was used as the running buffer, and the measurement temperature was set to 25° C. Chips produced by immobilizing the antigen peptide by the amine coupling method to a Series S Sencor Chip CM5 (GE Healthcare), or alternatively, chips produced by allowing preliminarily biotinylated antigen peptides to interact with and immobilize onto a Series S Sensor Chip SA (certified) (GE Healthcare) were used. Antibodies of interest were captured onto an antigen peptide-immobilized chip, and allowed to interact to each FcγR diluted with running buffer. To regenerate and repeatedly use the chip, the antibodies captured on the chip were washed off by reacting 10 mM glycine-HCl, pH 1.5.

[2] = target: T7, FcgRIIIa F (human, UniProt P08637 17-208); assay: as above
T7 construct: extracellular domain; also called FcγRIIIa F; FcγRIIIaF
T7 sequence (P08637 17-208): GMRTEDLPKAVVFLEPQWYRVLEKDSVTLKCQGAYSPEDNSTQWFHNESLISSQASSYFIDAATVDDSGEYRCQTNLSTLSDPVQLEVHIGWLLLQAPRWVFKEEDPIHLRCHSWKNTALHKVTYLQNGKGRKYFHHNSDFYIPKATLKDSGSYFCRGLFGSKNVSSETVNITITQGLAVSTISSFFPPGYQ
Description: as §1, §2

[3] = target: T1, FcgRIIa H; assay: as above
Description: as §1, §2

[4] = target: T2, FcgRIIa R; assay: as above
Description: as §1, §2

[5] = target: T3, FcgRIIb; assay: as above
Description: as §1, §2

[6] = target: T8, FcgRIIIa V (human, UniProt P08637 17-208); assay: as above
T8 construct: extracellular domain; also called FcγRIIIa V; FcγRIIIaV
T8 sequence (P08637 17-208 F176V limits assumed): as the sequence (P08637 17-208) above, with F160V counted along it
Description: as §1, §2

[7] = target: T4, FcgRIIb; assay: SPR (Biacore); KD of the variant for FcgRIIaR divided by its KD for FcgRIIb
[8] = target: T4, FcgRIIb; assay: SPR (Biacore), antibody captured on chip, FcgR extracellular domain as analyte
[9] = target: T5, FcgRIIaR; assay: as above

Binder	KD ratio [1]	KD ratio [2]	KD ratio [3]	KD ratio [4]	KD ratio [5]	KD ratio [6]	KD(IIaR)/KD(IIb) [7]	Relative KD (KD of IL6R-B3/IL6R-L divided by KD of the variant) [8]	Relative KD (KD of IL6R-B3/IL6R-L divided by KD of the variant) [9]
GpH7-Kn045/GpH7-Hl048/GpL16-k0 (antibody, human IgG1, kappa, Heterodimerized antibody: knob chain L234Y/L235Y/G236A/H268D/S298A, hole chain G236A/S239D/A330K/I332E; also called Kn045/Hl048) heavy 1: QVQLVQSGAEVKKPGASVTVSCKASGYTFTDYEMHWIRQPPGEGLEWIGAIDPKTGDTAYSESFQDRVTLTADKSTSTAYMELSSLTSEDTAVYYCTRFYSYTYWGQGTLVTVSSASTKGPSVFPLAPSSKSTSGGTAALGCLVKDYFPEPVTVSWNSGALTSGVHTFPAVLQSSGLYSLSSVVTVPSSSLGTQTYICNVNHKPSNTKVDKKVEPKSCDKTHTCPPCPAPEYYAGPSVFLFPPKPKDTLMISRTPEVTCVVVDVSDEDPEVKFNWYVDGVEVHNAKTKPREEQYNATYRVVSVLTVLHQDWLNGKEYKCKVSNKALPAPIEKTISKAKGQPREPQVCTLPPSRDELTKNQVSLWCLVKGFYPSDIAVEWESNGQPENNYKTTPPVLDSDGSFFLYSKLTVDKSRWQQGNVFSCSVMHEALHNHYTQKSLSLSP heavy 2: QVQLVQSGAEVKKPGASVTVSCKASGYTFTDYEMHWIRQPPGEGLEWIGAIDPKTGDTAYSESFQDRVTLTADKSTSTAYMELSSLTSEDTAVYYCTRFYSYTYWGQGTLVTVSSASTKGPSVFPLAPSSKSTSGGTAALGCLVKDYFPEPVTVSWNSGALTSGVHTFPAVLQSSGLYSLSSVVTVPSSSLGTQTYICNVNHKPSNTKVDKKVEPKSCDKTHTCPPCPAPELLAGPDVFLFPPKPKDTLMISRTPEVTCVVVDVSHEDPEVKFNWYVDGVEVHNAKTKPREEQYNSTYRVVSVLTVLHQDWLNGKEYKCKVSNKALPKPEEKTISKAKGQPREPQVYTLPPSRCELTKNQVSLSCAVKGFYPSDIAVEWESNGQPENNYKTTPPVLDSDGSFFLVSKLTVDKSRWQQGNVFSCSVMHEALHNHYTQKSLSLSP light: DIVMTQSPLSLPVTPGEPASISCQASESLVHSNRNTYLHWYLQKPGQSPQLLIYKVSNRFSGVPDRFSGSGSGTDFTLKISRVEAEDVGVYYCSQNTHVPPTFGQGTKVEIERTVAAPSVFIFPPSDEQLKSGTASVVCLLNNFYPREAKVQWKVDNALQSGNSQESVTEQDSKDSTYSLSSTLTLSKADYEKHKVYACEVTHQGLSSPVTKSFNRGEC	3.7 fold	419 fold	52 fold	154 fold	34 fold	170 fold	–	–	–
GpH7-Kn045/GpH7-Hl055/GpL16-k0 (antibody, human IgG1, kappa, Heterodimerized antibody: knob chain L234Y/L235Y/G236A/H268D/S298A, hole chain G236A/S239D/Q295L/A330M/I332E; also called Kn045/Hl055) heavy 1: QVQLVQSGAEVKKPGASVTVSCKASGYTFTDYEMHWIRQPPGEGLEWIGAIDPKTGDTAYSESFQDRVTLTADKSTSTAYMELSSLTSEDTAVYYCTRFYSYTYWGQGTLVTVSSASTKGPSVFPLAPSSKSTSGGTAALGCLVKDYFPEPVTVSWNSGALTSGVHTFPAVLQSSGLYSLSSVVTVPSSSLGTQTYICNVNHKPSNTKVDKKVEPKSCDKTHTCPPCPAPEYYAGPSVFLFPPKPKDTLMISRTPEVTCVVVDVSDEDPEVKFNWYVDGVEVHNAKTKPREEQYNATYRVVSVLTVLHQDWLNGKEYKCKVSNKALPAPIEKTISKAKGQPREPQVCTLPPSRDELTKNQVSLWCLVKGFYPSDIAVEWESNGQPENNYKTTPPVLDSDGSFFLYSKLTVDKSRWQQGNVFSCSVMHEALHNHYTQKSLSLSP heavy 2: QVQLVQSGAEVKKPGASVTVSCKASGYTFTDYEMHWIRQPPGEGLEWIGAIDPKTGDTAYSESFQDRVTLTADKSTSTAYMELSSLTSEDTAVYYCTRFYSYTYWGQGTLVTVSSASTKGPSVFPLAPSSKSTSGGTAALGCLVKDYFPEPVTVSWNSGALTSGVHTFPAVLQSSGLYSLSSVVTVPSSSLGTQTYICNVNHKPSNTKVDKKVEPKSCDKTHTCPPCPAPELLAGPDVFLFPPKPKDTLMISRTPEVTCVVVDVSHEDPEVKFNWYVDGVEVHNAKTKPREELYNSTYRVVSVLTVLHQDWLNGKEYKCKVSNKALPMPEEKTISKAKGQPREPQVYTLPPSRCELTKNQVSLSCAVKGFYPSDIAVEWESNGQPENNYKTTPPVLDSDGSFFLVSKLTVDKSRWQQGNVFSCSVMHEALHNHYTQKSLSLSP light: DIVMTQSPLSLPVTPGEPASISCQASESLVHSNRNTYLHWYLQKPGQSPQLLIYKVSNRFSGVPDRFSGSGSGTDFTLKISRVEAEDVGVYYCSQNTHVPPTFGQGTKVEIERTVAAPSVFIFPPSDEQLKSGTASVVCLLNNFYPREAKVQWKVDNALQSGNSQESVTEQDSKDSTYSLSSTLTLSKADYEKHKVYACEVTHQGLSSPVTKSFNRGEC	3.7 fold	985 fold	21 fold	56 fold	15 fold	300 fold	–	–	–
GpH7-Kn056/GpH7-Hl055/GpL16-k0 (antibody, human IgG1, kappa, Heterodimerized antibody: knob chain L234Y/L235Y/G236A/H268D/Q295L/S298A, hole chain G236A/S239D/Q295L/A330M/I332E; also called Kn056/Hl055) heavy 1: QVQLVQSGAEVKKPGASVTVSCKASGYTFTDYEMHWIRQPPGEGLEWIGAIDPKTGDTAYSESFQDRVTLTADKSTSTAYMELSSLTSEDTAVYYCTRFYSYTYWGQGTLVTVSSASTKGPSVFPLAPSSKSTSGGTAALGCLVKDYFPEPVTVSWNSGALTSGVHTFPAVLQSSGLYSLSSVVTVPSSSLGTQTYICNVNHKPSNTKVDKKVEPKSCDKTHTCPPCPAPEYYAGPSVFLFPPKPKDTLMISRTPEVTCVVVDVSDEDPEVKFNWYVDGVEVHNAKTKPREELYNATYRVVSVLTVLHQDWLNGKEYKCKVSNKALPAPIEKTISKAKGQPREPQVCTLPPSRDELTKNQVSLWCLVKGFYPSDIAVEWESNGQPENNYKTTPPVLDSDGSFFLYSKLTVDKSRWQQGNVFSCSVMHEALHNHYTQKSLSLSP heavy 2: QVQLVQSGAEVKKPGASVTVSCKASGYTFTDYEMHWIRQPPGEGLEWIGAIDPKTGDTAYSESFQDRVTLTADKSTSTAYMELSSLTSEDTAVYYCTRFYSYTYWGQGTLVTVSSASTKGPSVFPLAPSSKSTSGGTAALGCLVKDYFPEPVTVSWNSGALTSGVHTFPAVLQSSGLYSLSSVVTVPSSSLGTQTYICNVNHKPSNTKVDKKVEPKSCDKTHTCPPCPAPELLAGPDVFLFPPKPKDTLMISRTPEVTCVVVDVSHEDPEVKFNWYVDGVEVHNAKTKPREELYNSTYRVVSVLTVLHQDWLNGKEYKCKVSNKALPMPEEKTISKAKGQPREPQVYTLPPSRCELTKNQVSLSCAVKGFYPSDIAVEWESNGQPENNYKTTPPVLDSDGSFFLVSKLTVDKSRWQQGNVFSCSVMHEALHNHYTQKSLSLSP light: DIVMTQSPLSLPVTPGEPASISCQASESLVHSNRNTYLHWYLQKPGQSPQLLIYKVSNRFSGVPDRFSGSGSGTDFTLKISRVEAEDVGVYYCSQNTHVPPTFGQGTKVEIERTVAAPSVFIFPPSDEQLKSGTASVVCLLNNFYPREAKVQWKVDNALQSGNSQESVTEQDSKDSTYSLSSTLTLSKADYEKHKVYACEVTHQGLSSPVTKSFNRGEC	2.9 fold	1110 fold	20 fold	44 fold	14 fold	327 fold	–	–	–
IL6R-BP256/IL6R-L (antibody, human IgG1, kappa, Homodimerized antibody, S239D in both H chains) heavy: QVQLQESGPGLVKPSETLSLTCAVSGHSISHDHAWSWVRQPPGEGLEWIGFISYSGITNYNPSLQGRVTISRDNSKNTLYLQMNSLRAEDTAVYYCARSLARTTAMDYWGEGTLVTVSSASTKGPSVFPLAPSSKSTSGGTAALGCLVKDYFPEPVTVSWNSGALTSGVHTFPAVLQSSGLYSLSSVVTVPSSSLGTQTYICNVNHKPSNTKVDKKVEPKSCDKTHTCPPCPAPDLLGDDDVFLFPPKPKDTLMISRTPEVTCVVVDVSDEDGEVKFNWYVDGVEVHNAKTKPREEQYNSTYRVVSVLTVLHQDWLNGKEYKCKVSNKALPRPIEKTISKAKGQPREPQVYTLPPSRDELTKNQVSLTCLVKGFYPSDIAVEWESNGQPENNYKTTPPVLDSDGSFFLYSKLTVDKSRWQQGNVFSCSVMHEALHNHYTQESLSLSP light: not shown	–	–	–	–	–	–	8.4	35.7	1.5
